Publication PMC11405395 (The EMBO Journal, 2024)

B1: RTEL1ΔR875-V881 (enzyme, human, UniProt Q9NZ71-1 1-1219, looked up)
chain: MPKIVLNGVTVDFPFQPYKCQQEYMTKVLECLQQKVNGILESPTGTGKTLCLLCTTLAWREHLRDGISARKIAERAQGELFPDRALSSWGNAAAAAGDPIACYTDIPKIIYASRTHSQLTQVINELRNTSYRPKVCVLGSREQLCIHPEVKKQESNHLQIHLCRKKVASRSCHFYNNVEEKSLEQELASPILDIEDLVKSGSKHRVCPYYLSRNLKQQADIIFMPYNYLLDAKSRRAHNIDLKGTVVIFDEAHNVEKMCEESASFDLTPHDLASGLDVIDQVLEEQTKAAQQGEPHPEFSADSPSPGLNMELEDIAKLKMILLRLEGAIDAVELPGDDSGVTKPGSYIFELFAEAQITFQTKGCILDSLDQIIQHLAGRAGVFTNTAGLQKLADIIQIVFSVDPSEGSPGSPAGLGALQSYKVHIHPDAGHRRTAQRSDAWSTTAARKRGKVLSYWCFSPGHSMHELVRQGVRSLILTSGTLAPVSSFALEMQIPFPVCLENPHIIDKHQIWVGVVPRGPDGAQLSSAFDRRFSEECLSSLGKALGNIARVVPYGLLIFFPSYPVMEKSLEFWRARDLARKMEALKPLFVEPRSKGSFSETISAYYARVAAPGSTGATFLAVCRGKASEGLDFSDTNGRGVIVTGLPYPPRMDPRVVLKMQFLDEMKGQGGAGGQFLSGQEWYRQQASRAVNQAIGRVIRHRQDYGAVFLCDHRFAFADARAQLPSWVRPHVRVYDNFGHVIRDVAQFFRVAERTMPAPAPRATAPSVRGEDAVSEAKSPGPFFSTRKAKSLDLHVPSLKQRSSGSPAAGDPESSLCVEYEQEPVPARQRPRGLLAALEHSEQRAGSPGEEQAHSCSTLSLLSEKRPAEEPRGGSHPEEPVAGAQTDRAKLFMVAVKQELSQANFATFTQALQDYKGSDDFAALAACLGPLFAEDPKKHNLLQGFYQFVRPHHKQQFEEVCIQLTGRGCGYRPEHSIPRRQRAQPVLDPTGRTAPDPKLTVSTAAAQQLDPQEHLNQGRPHLSPRPPPTGDPGSQPQWGSGVPRAGKQGQHAVSAYLADARRALGSAGCSQLLAALTAYKQDDDLDKVLAVLAALTTAKPEDFPLLHRFSMFVRPHHKQRFSQTCTDLTGRPYPGMEPPGPQEERLAVPPVLTHRAPQPGPSRSEKTGKTQSKISSFLRQRPAGTVGAGGEDAGPSQSSGPPHGPAASEWGL
notes: Plasmid pSP52; also called hsRTEL1ΔR875-V881; source: S. cerevisiae strain ySP076, purified (anti-FLAG M2 resin, HiLoad Superdex 200); not shown: 2XFLAG, C-terminal, kept
B2: RTEL1ΔL834-G846 (enzyme, human, UniProt Q9NZ71-1 1-1219, looked up)
chain: MPKIVLNGVTVDFPFQPYKCQQEYMTKVLECLQQKVNGILESPTGTGKTLCLLCTTLAWREHLRDGISARKIAERAQGELFPDRALSSWGNAAAAAGDPIACYTDIPKIIYASRTHSQLTQVINELRNTSYRPKVCVLGSREQLCIHPEVKKQESNHLQIHLCRKKVASRSCHFYNNVEEKSLEQELASPILDIEDLVKSGSKHRVCPYYLSRNLKQQADIIFMPYNYLLDAKSRRAHNIDLKGTVVIFDEAHNVEKMCEESASFDLTPHDLASGLDVIDQVLEEQTKAAQQGEPHPEFSADSPSPGLNMELEDIAKLKMILLRLEGAIDAVELPGDDSGVTKPGSYIFELFAEAQITFQTKGCILDSLDQIIQHLAGRAGVFTNTAGLQKLADIIQIVFSVDPSEGSPGSPAGLGALQSYKVHIHPDAGHRRTAQRSDAWSTTAARKRGKVLSYWCFSPGHSMHELVRQGVRSLILTSGTLAPVSSFALEMQIPFPVCLENPHIIDKHQIWVGVVPRGPDGAQLSSAFDRRFSEECLSSLGKALGNIARVVPYGLLIFFPSYPVMEKSLEFWRARDLARKMEALKPLFVEPRSKGSFSETISAYYARVAAPGSTGATFLAVCRGKASEGLDFSDTNGRGVIVTGLPYPPRMDPRVVLKMQFLDEMKGQGGAGGQFLSGQEWYRQQASRAVNQAIGRVIRHRQDYGAVFLCDHRFAFADARAQLPSWVRPHVRVYDNFGHVIRDVAQFFRVAERTMPAPAPRATAPSVRGEDAVSEAKSPGPFFSTRKAKSLDLHVPSLKQRSSGSPAAGDPESSLCVEYEQEPVPARQRPRGSPGEEQAHSCSTLSLLSEKRPAEEPRGGRKKIRLVSHPEEPVAGAQTDRAKLFMVAVKQELSQANFATFTQALQDYKGSDDFAALAACLGPLFAEDPKKHNLLQGFYQFVRPHHKQQFEEVCIQLTGRGCGYRPEHSIPRRQRAQPVLDPTGRTAPDPKLTVSTAAAQQLDPQEHLNQGRPHLSPRPPPTGDPGSQPQWGSGVPRAGKQGQHAVSAYLADARRALGSAGCSQLLAALTAYKQDDDLDKVLAVLAALTTAKPEDFPLLHRFSMFVRPHHKQRFSQTCTDLTGRPYPGMEPPGPQEERLAVPPVLTHRAPQPGPSRSEKTGKTQSKISSFLRQRPAGTVGAGGEDAGPSQSSGPPHGPAASEWGL
notes: Plasmid pSP48; also called hsRTEL1ΔL834-G846; source: S. cerevisiae strain ySP072, purified (anti-FLAG M2 resin, HiLoad Superdex 200); not shown: 2XFLAG, C-terminal, kept
B3: Homo sapiens RTEL1 (wild-type, FLAG-tagged) (enzyme, human, UniProt Q9NZ71-1 1-1219, looked up)
chain: MPKIVLNGVTVDFPFQPYKCQQEYMTKVLECLQQKVNGILESPTGTGKTLCLLCTTLAWREHLRDGISARKIAERAQGELFPDRALSSWGNAAAAAGDPIACYTDIPKIIYASRTHSQLTQVINELRNTSYRPKVCVLGSREQLCIHPEVKKQESNHLQIHLCRKKVASRSCHFYNNVEEKSLEQELASPILDIEDLVKSGSKHRVCPYYLSRNLKQQADIIFMPYNYLLDAKSRRAHNIDLKGTVVIFDEAHNVEKMCEESASFDLTPHDLASGLDVIDQVLEEQTKAAQQGEPHPEFSADSPSPGLNMELEDIAKLKMILLRLEGAIDAVELPGDDSGVTKPGSYIFELFAEAQITFQTKGCILDSLDQIIQHLAGRAGVFTNTAGLQKLADIIQIVFSVDPSEGSPGSPAGLGALQSYKVHIHPDAGHRRTAQRSDAWSTTAARKRGKVLSYWCFSPGHSMHELVRQGVRSLILTSGTLAPVSSFALEMQIPFPVCLENPHIIDKHQIWVGVVPRGPDGAQLSSAFDRRFSEECLSSLGKALGNIARVVPYGLLIFFPSYPVMEKSLEFWRARDLARKMEALKPLFVEPRSKGSFSETISAYYARVAAPGSTGATFLAVCRGKASEGLDFSDTNGRGVIVTGLPYPPRMDPRVVLKMQFLDEMKGQGGAGGQFLSGQEWYRQQASRAVNQAIGRVIRHRQDYGAVFLCDHRFAFADARAQLPSWVRPHVRVYDNFGHVIRDVAQFFRVAERTMPAPAPRATAPSVRGEDAVSEAKSPGPFFSTRKAKSLDLHVPSLKQRSSGSPAAGDPESSLCVEYEQEPVPARQRPRGLLAALEHSEQRAGSPGEEQAHSCSTLSLLSEKRPAEEPRGGRKKIRLVSHPEEPVAGAQTDRAKLFMVAVKQELSQANFATFTQALQDYKGSDDFAALAACLGPLFAEDPKKHNLLQGFYQFVRPHHKQQFEEVCIQLTGRGCGYRPEHSIPRRQRAQPVLDPTGRTAPDPKLTVSTAAAQQLDPQEHLNQGRPHLSPRPPPTGDPGSQPQWGSGVPRAGKQGQHAVSAYLADARRALGSAGCSQLLAALTAYKQDDDLDKVLAVLAALTTAKPEDFPLLHRFSMFVRPHHKQRFSQTCTDLTGRPYPGMEPPGPQEERLAVPPVLTHRAPQPGPSRSEKTGKTQSKISSFLRQRPAGTVGAGGEDAGPSQSSGPPHGPAASEWGL
notes: RTEL1, human; the models and residue numbers are of isoform 1 (NP_057518.1), printed to residue 1219; Plasmid pTD195; The isoform is printed for the AlphaFold models; the deletion mutants use the same numbering; also called hsRTEL1; RTEL1-2FLAG; source: S. cerevisiae strain yOO1, purified (anti-FLAG M2 resin, HiLoad Superdex 200); not shown: 2XFLAG, C-terminal, kept
B4: Rrm3Δ111-130 (enzyme, S. cerevisiae, UniProt P38766 1-723, looked up)
chain: MFRSHASGNKKQWSKRSSNGSTPAASASGSHAYRQQTLSSFFMGCGKKSAAASKNSTTIIDLESGDEGNRNITAPPRPRLIRNNSSSLFSQSQGSFGDDDPDAEFKKLVDHKTASASTTQKTYHFDEDETLREVTSVKSNSRQLSFTSTINIEDSSMKLSTDSERPAKRSKPSMEFQGLKLTVPKKIKPLLRKTVSNMDSMNHRSASSPVVLTMEQERVVNLIVKKRTNVFYTGSAGTGKSVILQTIIRQLSSLYGKESIAITASTGLAAVTIGGSTLHKWSGIGIGNKTIDQLVKKIQSQKDLLAAWRYTKVLIIDEISMVDGNLLDKLEQIARRIRKNDDPFGGIQLVLTGDFFQLPPVAKKDEHNVVKFCFESEMWKRCIQKTILLTKVFRQQDNKLIDILNAIRYGELTVDIAKTIRNLNRDIDYADGIAPTELYATRREVELSNVKKLQSLPGDLYEFKAVDNAPERYQAILDSSLMVEKVVALKEDAQVMMLKNKPDVELVNGSLGKVLFFVTESLVVKMKEIYKIVDDEVVMDMRLVSRVIGNPLLKESKEFRQDLNARPLARLERLKILINYAVKISPHKEKFPYVRWTVGKNKYIHELMVPERFPIDIPRENVGLERTQIPLMLCWALSIHKAQGQTIQRLKVDLRRIFEAGQVYVALSRAVTMDTLQVLNFDPGKIRTNERVKDFYKRLETLK
notes: Plasmid pOO10; source: S. cerevisiae strain yOO5, purified (anti-FLAG M2 resin, HiTrap heparin); not shown: 3FLAG, N-terminal, kept

Experiments:
Details in all cases: both partners purified
[1] = target: T1, Homo sapiens DNA polymerase ε (POLE1, POLE2, POLE3, POLE4) (human, UniProt Q07864 1-2286; P56282 1-527; Q9NRF9 1-147; Q9NR33 1-117); assay: co-IP; purified proteins mixed: 10 nM RTEL1-FLAG with 15 nM hsPol ε, 10 min on ice; anti-FLAG M2 magnetic beads; 25 mM Hepes-KOH pH 7.6, 200 mM KOAc, 0.02% NP-40-S, 0.1 mg/mL BSA, 1 mM DTT, 10 mM Mg(OAc)2; immunoblotting
T1 construct: POLE1 (catalytic subunit of DNA polymerase ε), human; POLE2 (homologue of budding yeast Dpb2), human (PolE2_tev_2XFLAG; tag removed with TEV protease); POLE3, human; POLE4, human; The methods call the removed tag 3FLAG, the strain and plasmid 2XFLAG; also called hsPOL ε; POL ε; source: S. cerevisiae strain ySP061, purified (anti-FLAG M2 resin, TEV cleavage, MonoQ, Superdex 200); not shown: …

[2] = target: T2, Homo sapiens CMG helicase (CDC45-MCM2-7-GINS) (human, UniProt P49736 1-904; P25205 1-808; P33991 1-863; P33992 1-734; Q14566 1-821; P33993 …); assay: co-IP; purified proteins mixed: 10 nM RTEL1-FLAG with 15 nM hsCMG, 10 min on ice; anti-FLAG M2 magnetic beads; 25 mM Hepes-KOH pH 7.6, 100 mM KOAc, 0.02% NP-40-S, 0.1 mg/mL BSA, 1 mM DTT, 10 mM Mg(OAc)2; immunoblotting
T2 construct: MCM2, human, subunit of CMG; MCM3, human, subunit of CMG; MCM4, human, subunit of CMG; MCM5, human, subunit of CMG; MCM6, human, subunit of CMG; MCM7, human, subunit of CMG; CDC45, human, subunit of CMG; SLD5 (GINS4), human, GINS subunit of CMG (PrA-3TEV-HsSld5; eluted from IgG Sepharose with TEV protease); PSF1 (GINS1), human, GINS subunit of CMG; PSF2 (GINS2), human, GINS subunit of CMG; PSF3 …

[3] = target: T3, DNA polymerase ε (Pol2, Dpb2, Dpb3, Dpb4), S. cerevisiae (S. cerevisiae, UniProt P21951 1-2222; P24482 1-689; P27344 1-201; Q04603 1-196); assay: co-IP; purified proteins mixed: 10 nM FLAG-Rrm3 with 15 nM Pol ε, 10 min on ice; anti-FLAG M2 magnetic beads; 25 mM Hepes-KOH pH 7.6, 400 mM KOAc, 0.02% NP-40-S, 0.1 mg/mL BSA, 1 mM DTT, 10 mM Mg(OAc)2; immunoblotting
T3 construct: Pol2, catalytic subunit of DNA polymerase ε, S. cerevisiae; Dpb2, second largest subunit of DNA polymerase ε, S. cerevisiae; Dpb3, subunit of DNA polymerase ε, S. cerevisiae; Dpb4, subunit of DNA polymerase ε, S. cerevisiae (DPB4-TEV-CBP); also called Polε; Pol ε; source: S. cerevisiae strain yAJ2, purified as previously described (Yeeles et al, 2015); copies: + + +
T3 sequence (P21951 whole entry, chain 1 of 4): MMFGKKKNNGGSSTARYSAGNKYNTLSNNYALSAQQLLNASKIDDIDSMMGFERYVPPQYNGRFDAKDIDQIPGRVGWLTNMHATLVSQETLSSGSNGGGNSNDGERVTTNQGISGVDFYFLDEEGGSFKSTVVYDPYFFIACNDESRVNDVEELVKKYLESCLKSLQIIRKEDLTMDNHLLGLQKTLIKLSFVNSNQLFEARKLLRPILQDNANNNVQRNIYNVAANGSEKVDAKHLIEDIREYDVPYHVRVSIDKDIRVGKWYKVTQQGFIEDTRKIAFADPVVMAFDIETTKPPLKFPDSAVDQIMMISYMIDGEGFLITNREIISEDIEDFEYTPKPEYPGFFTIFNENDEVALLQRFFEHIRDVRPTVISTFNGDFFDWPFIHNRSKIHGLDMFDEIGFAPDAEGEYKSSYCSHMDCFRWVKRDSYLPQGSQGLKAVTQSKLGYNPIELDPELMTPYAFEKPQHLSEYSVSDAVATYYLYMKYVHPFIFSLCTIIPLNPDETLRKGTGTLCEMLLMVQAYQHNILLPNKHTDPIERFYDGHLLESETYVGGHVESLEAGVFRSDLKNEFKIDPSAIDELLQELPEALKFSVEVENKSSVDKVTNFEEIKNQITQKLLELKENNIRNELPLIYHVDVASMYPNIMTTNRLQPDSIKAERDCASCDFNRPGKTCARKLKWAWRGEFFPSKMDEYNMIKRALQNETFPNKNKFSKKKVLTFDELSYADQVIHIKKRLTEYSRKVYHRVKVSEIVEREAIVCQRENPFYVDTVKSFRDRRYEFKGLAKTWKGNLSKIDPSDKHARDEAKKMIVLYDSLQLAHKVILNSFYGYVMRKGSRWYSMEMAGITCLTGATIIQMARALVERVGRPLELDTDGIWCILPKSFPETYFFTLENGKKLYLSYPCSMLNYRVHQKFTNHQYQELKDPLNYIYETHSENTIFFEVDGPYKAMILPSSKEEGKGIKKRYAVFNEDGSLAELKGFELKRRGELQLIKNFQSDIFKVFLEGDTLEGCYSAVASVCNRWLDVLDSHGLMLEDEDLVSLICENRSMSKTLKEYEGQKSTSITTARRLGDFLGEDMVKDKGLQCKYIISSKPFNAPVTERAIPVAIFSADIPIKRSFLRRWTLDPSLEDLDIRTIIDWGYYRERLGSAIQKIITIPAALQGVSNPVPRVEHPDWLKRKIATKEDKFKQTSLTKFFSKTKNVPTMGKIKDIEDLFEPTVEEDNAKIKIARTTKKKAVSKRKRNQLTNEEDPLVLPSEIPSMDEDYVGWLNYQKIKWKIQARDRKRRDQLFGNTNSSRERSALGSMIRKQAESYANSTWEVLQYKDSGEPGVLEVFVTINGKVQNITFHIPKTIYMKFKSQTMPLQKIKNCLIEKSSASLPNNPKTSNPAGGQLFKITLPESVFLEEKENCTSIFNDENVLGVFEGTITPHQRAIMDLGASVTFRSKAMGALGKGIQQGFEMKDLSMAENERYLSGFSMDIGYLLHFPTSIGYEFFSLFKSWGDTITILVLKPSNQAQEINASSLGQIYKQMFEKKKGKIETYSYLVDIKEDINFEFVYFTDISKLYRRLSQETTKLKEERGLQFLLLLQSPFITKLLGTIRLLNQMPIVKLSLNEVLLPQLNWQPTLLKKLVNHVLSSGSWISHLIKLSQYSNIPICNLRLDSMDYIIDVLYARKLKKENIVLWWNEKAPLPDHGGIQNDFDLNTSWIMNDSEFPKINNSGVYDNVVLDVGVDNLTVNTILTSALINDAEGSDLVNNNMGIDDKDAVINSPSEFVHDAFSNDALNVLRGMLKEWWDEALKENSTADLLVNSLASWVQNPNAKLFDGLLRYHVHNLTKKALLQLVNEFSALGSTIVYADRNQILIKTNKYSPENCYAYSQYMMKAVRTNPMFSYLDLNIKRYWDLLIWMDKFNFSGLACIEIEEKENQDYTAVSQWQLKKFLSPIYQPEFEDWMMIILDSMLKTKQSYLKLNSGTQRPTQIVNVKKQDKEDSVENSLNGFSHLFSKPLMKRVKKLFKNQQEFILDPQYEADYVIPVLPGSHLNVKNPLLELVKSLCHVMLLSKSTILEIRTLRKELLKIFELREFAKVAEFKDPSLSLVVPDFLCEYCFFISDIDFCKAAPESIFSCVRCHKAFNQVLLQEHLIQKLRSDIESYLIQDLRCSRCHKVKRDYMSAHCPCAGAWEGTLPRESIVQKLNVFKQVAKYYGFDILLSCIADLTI
T3 sequence (P24482 whole entry, chain 2 of 4): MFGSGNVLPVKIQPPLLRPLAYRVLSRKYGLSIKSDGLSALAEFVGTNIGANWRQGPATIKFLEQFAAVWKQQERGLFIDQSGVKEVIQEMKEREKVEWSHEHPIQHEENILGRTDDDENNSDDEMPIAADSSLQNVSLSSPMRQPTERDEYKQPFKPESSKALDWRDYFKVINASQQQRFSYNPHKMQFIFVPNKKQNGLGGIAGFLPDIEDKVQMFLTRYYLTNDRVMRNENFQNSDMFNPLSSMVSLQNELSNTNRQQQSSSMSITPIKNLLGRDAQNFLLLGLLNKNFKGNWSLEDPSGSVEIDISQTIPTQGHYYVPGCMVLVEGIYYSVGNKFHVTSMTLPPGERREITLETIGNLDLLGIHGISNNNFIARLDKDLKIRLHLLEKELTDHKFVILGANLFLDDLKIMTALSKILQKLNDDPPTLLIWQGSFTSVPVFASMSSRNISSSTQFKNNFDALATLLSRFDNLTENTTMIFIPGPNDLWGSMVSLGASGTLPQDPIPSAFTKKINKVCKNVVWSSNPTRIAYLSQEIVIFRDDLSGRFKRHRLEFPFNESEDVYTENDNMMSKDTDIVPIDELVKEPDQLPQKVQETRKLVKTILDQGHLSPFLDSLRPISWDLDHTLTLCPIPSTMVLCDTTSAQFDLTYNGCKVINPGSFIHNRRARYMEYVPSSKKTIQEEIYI
T3 sequence (P27344 whole entry, chain 3 of 4): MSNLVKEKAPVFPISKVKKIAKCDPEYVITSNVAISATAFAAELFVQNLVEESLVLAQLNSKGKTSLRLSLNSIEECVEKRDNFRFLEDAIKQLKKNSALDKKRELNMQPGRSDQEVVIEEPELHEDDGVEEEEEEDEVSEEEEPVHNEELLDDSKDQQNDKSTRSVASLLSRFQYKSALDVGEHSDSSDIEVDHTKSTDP
T3 sequence (Q04603 whole entry, chain 4 of 4): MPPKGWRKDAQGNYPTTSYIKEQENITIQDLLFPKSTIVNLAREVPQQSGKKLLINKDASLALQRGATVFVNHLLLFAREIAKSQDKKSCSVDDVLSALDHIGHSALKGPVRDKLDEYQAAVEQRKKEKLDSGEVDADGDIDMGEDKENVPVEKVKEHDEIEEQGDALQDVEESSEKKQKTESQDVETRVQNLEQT

Row | Binder | binding result [2] | further results
1 | B1 | – | binding result [1]: binds
2 | B2 | binds | –
3 | B3 | binds | –
4 | B4 | – | binding result [3]: binds
